One block for each molecule: values may come before it.
Experiments:
ER = test: CAT reporter transactivation by ER with TIF2/TIF2.1 coexpression; type: cell-based; conditions: HeLa, Cos-1 cells
Description: (b) HeLa cells were cotransfected with 5 μg Vit-tk-CAT and the indicated amount of HEGO, with or without 5 μg TIF2.1 in the presence of […] E2 or OHT. CAT activity is given relative to that induced by 100 ng HEGO in presence of E2.
(d) HeLa (lanes 1-12) or Cos-1 lanes 13-18) cells were transfected with 5 fig GRE-TATA-CAT (lanes 1-6) or 1 μg MMTV-CAT (lanes 7-18) together with 1 μg hPR with or without 3 μg TIF 2 in presence or absence of […] of the indicated ligand. • (e) Cos-1 cells were cotransfected with 1 μg Vit-tk-CAT and 1 μg HEGO with or without 3 μg TIF2 in presence or absence of 10^−6 M of the indicated ligands.
TIF2-stimulation is to some extent affected by the promoter environment of the responsive gene, as the TIF2 effect on PR/5020-induced transactivation was greater for a complex (MMTV) than for a minimal (GRE-TATA) promoter, although the latter was also reproducibly stimulated (FIG. 5d).

[1] = target: T1, transcriptional intermediary factor-2 (TIF2) (human, UniProt Q15596 1-1464); test: Far-Western blot with E2-bound 32P-GST-ER(DEF)
T1 construct: Full length: endogenous protein of cell extracts (HeLa, MCF-7 and others), protein from transfected Cos-1 cells, or in-vitro-translated; also called 160-kDa protein
T1 sequence (Q15596 whole entry P1420S): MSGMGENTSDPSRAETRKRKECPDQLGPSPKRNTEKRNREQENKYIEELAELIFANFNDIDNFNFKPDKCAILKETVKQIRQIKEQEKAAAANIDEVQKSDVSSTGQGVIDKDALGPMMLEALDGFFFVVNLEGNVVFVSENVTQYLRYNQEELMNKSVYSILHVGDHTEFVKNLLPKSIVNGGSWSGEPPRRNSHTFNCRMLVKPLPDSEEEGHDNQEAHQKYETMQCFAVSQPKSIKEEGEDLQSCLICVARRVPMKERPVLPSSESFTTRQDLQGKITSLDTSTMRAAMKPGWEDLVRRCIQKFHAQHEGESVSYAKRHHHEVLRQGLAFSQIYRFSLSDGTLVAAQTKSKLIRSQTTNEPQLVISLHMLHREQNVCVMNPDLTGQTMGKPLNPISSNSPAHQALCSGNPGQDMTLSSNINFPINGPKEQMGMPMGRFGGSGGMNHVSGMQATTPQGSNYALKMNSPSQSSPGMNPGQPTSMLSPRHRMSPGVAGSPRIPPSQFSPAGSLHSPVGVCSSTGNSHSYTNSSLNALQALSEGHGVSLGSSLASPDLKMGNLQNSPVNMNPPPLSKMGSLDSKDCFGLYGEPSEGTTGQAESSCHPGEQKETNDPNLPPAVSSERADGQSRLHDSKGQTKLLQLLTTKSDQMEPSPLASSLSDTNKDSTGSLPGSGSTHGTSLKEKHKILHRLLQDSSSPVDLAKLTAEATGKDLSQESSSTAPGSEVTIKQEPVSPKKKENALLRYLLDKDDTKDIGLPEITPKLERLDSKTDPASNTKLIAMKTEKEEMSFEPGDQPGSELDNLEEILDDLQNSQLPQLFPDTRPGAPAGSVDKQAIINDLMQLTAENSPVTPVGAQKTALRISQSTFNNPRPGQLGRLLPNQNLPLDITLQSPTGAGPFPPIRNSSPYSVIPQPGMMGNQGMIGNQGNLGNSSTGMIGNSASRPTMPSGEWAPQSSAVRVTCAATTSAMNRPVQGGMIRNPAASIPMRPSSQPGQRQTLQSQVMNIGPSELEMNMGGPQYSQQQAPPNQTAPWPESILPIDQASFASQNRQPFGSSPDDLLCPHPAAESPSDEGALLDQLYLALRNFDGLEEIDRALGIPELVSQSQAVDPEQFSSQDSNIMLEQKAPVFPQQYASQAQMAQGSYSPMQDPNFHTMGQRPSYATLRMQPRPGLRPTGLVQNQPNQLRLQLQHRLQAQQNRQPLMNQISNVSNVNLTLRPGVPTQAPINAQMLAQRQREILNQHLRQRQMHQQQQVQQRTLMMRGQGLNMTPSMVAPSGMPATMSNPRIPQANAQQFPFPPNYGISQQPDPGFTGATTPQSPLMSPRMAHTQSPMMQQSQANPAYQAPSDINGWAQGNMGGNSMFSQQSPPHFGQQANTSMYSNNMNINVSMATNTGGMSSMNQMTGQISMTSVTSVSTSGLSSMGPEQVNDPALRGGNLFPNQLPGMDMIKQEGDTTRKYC

[2] = target: T2, TIF2.1 (TIF2 amino acids 624 to 1287) (human, UniProt Q15596 624-1287); test: Far-Western blot with 32P-labelled NR LBD probe, agonist present
T2 construct: Form without a stated tag: expression-library clone, expressed in Cos cells from pSG5, or in-vitro-translated; also called cytoplasmic TIF2.1 polypeptide
T2 sequence: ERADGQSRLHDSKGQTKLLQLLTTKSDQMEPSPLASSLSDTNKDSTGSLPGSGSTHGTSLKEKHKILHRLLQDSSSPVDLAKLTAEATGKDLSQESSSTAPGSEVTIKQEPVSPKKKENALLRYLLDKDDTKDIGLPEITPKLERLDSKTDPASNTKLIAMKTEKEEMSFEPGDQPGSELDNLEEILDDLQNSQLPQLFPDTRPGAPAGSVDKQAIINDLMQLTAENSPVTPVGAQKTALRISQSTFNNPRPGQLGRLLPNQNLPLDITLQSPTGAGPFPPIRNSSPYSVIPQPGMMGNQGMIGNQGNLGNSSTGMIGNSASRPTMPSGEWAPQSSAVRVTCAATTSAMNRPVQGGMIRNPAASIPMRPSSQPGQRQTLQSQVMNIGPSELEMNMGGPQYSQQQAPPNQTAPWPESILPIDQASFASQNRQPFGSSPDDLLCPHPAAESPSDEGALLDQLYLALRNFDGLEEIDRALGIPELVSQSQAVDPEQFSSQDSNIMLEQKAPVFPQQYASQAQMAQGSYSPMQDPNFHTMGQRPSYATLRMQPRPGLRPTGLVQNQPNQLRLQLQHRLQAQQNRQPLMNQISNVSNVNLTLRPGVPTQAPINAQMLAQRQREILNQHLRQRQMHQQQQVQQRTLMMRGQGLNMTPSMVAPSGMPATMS

[3] = target: T3, (His)6-TIF2.1, E. coli-expressed purified recombinant TIF2.1 (human, UniProt Q15596 624-1287); test: GST interaction assay with E. coli-expressed TIF2.1, Western blot, agonist present
T3 construct: also called His-tagged TIF2.1; purified TIF2.1 protein; not shown: (His)6 tag of pET15b
T3 sequence: T2 sequence

Molecule: CC/C(=C(\c1ccc(O)cc1)c1ccc(OCCN(C)C)cc1)c1ccccc1 [hydroxytamoxifen]
stimulation by TIF2.1 of transactivation by antagonist-bound ER (ER): did not lead to any stimulation

binding result [1]: binds | binding result [2]: binds
B1: GST-hERα(DEF) (pGEX2T-hERα(DEF), amino acids 282-595) (receptor, human, UniProt P03372 282-595, looked up)
chain: SAGDMRAANLWPSPLMIKRSKKNSLALSLTADQMVSALLDAEPPILYSEYDPTRPFSEASMMGLLTNLADRELVHMINWAKRVPGFVDLTLHDQVHLLECAWLEILMIGLVWRSMEHPGKLLFAPNLLLDRNQGKCVEGMVEIFDMLLATSSRFRMMNLQGEEFVCLKSIILLNSGVYTFLSSTLKSLEEKDHIHRVLDKITDTLIHLMAKAGLTLQQQHQRLAQLLLILSHIRHMSNKGMEHLYSMKCKNVVPLYDLLLEMLDAHRLHAPTSRGGASVEETDQSHLATAGSTSSHSLQKYYITGEAEGFPATV
notes: range 282-595; Bacterially produced; also used 32P-labelled as Far-Western probe; also called GST-ER; GST-ER(DEF); not shown: glutathione-S-transferase (GST) of pGEX2T (Pharmacia)

binding result [2]: binds | binding result [3]: binds
B2: GST-hRARα(DEF) (pGEX2T-hRARα(DEF), amino acids 153-462) (receptor, human, UniProt P10276 153-462, looked up)
chain: MSKESVRNDRNKKKKEVPKPECSESYTLTPEVGELIEKVRKAHQETFPALCQLGKYTTNNSSEQRVSLDIDLWDKFSELSTKCIIKTVEFAKQLPGFTTLTIADQITLLKAACLDILILRICTRYTPEQDTMTFSDGLTLNRTQMHNAGFGPLTDLVFAFANQLLPLEMDDAETGLLSAICLICGDRQDLEQPDRVDMLQEPLLEALKVYVRKRRPSRPHMFPKMLMKITDLRSISAKGAERVITLKMEIPGSMPPLIQEMLENSEGLDTLSGQPGGGGRDGGGLAPPPGSCSPSLSPSSNRSSPATHSP
notes: range 153-462; Bacterially produced; also called GST-RAR; GST-RARα(DEF); not shown: glutathione-S-transferase (GST) of pGEX2T (Pharmacia)
